Source: article PMC10465942, “N-acetylmuramic acid recognition by MurK kinase from the MurNAc auxotrophic oral pathogen Tannerella forsythia” (The Journal of Biological Chemistry, 2023)

B1: K1058 (Tannerella forsythia 92A2) (protein)
chain: MKLIAESGSTKTEWSLVEGEHLIQRVFTEGLNPFFQTRREISRSIRLGLPDSFFKRKLEQVFFYGAGCTSAEKKSVVEASLVAQFKTPAYVESDLLAAARGLFQHDSGIACILGTGSNSCFYDGHVIVKNVRAGGYILGDEGSGAALGKQFLSDVLKKLAPQVLIDDFFEKYDLTPHDVMDVVYNRPFPNRFLAEQSCFLADYLRLDYVKGLLLSNLRSFFLRNVMQYDYLNYPIRFVGSVAYNYADLLHQVGKEFGVELSVVEETPMGGLIKYHAFPPDDPES
notes: recombinant His6-tagged protein expressed in E. coli
B2: MurK (murein sugar kinase) (Tannerella forsythia 92A2) (protein)
chain: MILIADSGSTKTHWNVLDRGQVVGEIFTKGMNPFFQTPEEMGREIERTLLPQLNSNRFCEVHFFGAGCIPEKVPIVRNVLKGCLDVSSLIEVDTDMLAAAKASCGRSPGIVCIMGTGSNSCFYDGEKITANVSPLGFILGDEGSGAVLGKLLIGDLLKNQMGEELKEKFLRQYELTPANIIERVYRQPFPNRFLAGISPFLAENIEHPAIHSLVLNAFKSFLTRNVMQFDYTRYKAHFIGSVAYYYKDILEEAAAATGIRTGTIVRNPMEGLRTYYSTVAETV
notes: as for B1

Key:
purified protein [1] = substrate: CC(=O)N[C@@H]1[C@@H](O[C@H](C)C(=O)O)[C@H](O)[C@@H](CO)O[C@H]1O; assay: purified protein; assay type: binding, Tannerella forsythia; conditions: active site, very similar to MurK MurNAc site; T69, R132, A133 differ
purified protein [2] = substrate: CC(=O)N[C@@H]1[C@@H](O[C@H](C)C(=O)O)[C@H](O)[C@@H](CO)O[C@H]1O; assay: purified protein; set-up: species or system Tannerella forsythia; conditions: active site, MurNAc-binding site; hydrogen bonds to G67, D95, N119, D141; lactyl ether at S133, P134, L135

Protein | Km (purified protein [1]) | kcat (purified protein [1]) | kcat/Km (purified protein [1]) | Km (purified protein [2]) | kcat (purified protein [2]) | kcat/Km (purified protein [2])
B1 | 28 ± 10 µM | 0.18 ± 0.01 s⁻¹ | 6400 ± 2900 M⁻¹ s⁻¹ |  |  | 
B2 |  |  |  | 180 ± 40 µM | 42 ± 4.2 s⁻¹ | 230000 ± 56000 M⁻¹ s⁻¹
